{"source": "patent US20210347913A1", "about": "(CRISPR THERAPEUTICS, published 2021)", "binders": {"B1": {"name": "mask peptide P2 (peptide)", "peptide": "HEEVHMRPNKLSLTWAYTGPQLR", "notes": "Found by phage display (Screen 1); fused through a cleavable linker in the masked constructs"}, "B2": {"name": "CTX181.P1 (other)", "chain": "EVAPGKRWFYNHVKQVPHLVGSSGGSGGSGGSGGGPLGLAGGSSGQVQLVESGGGVVQPGRSLRLSCAASGFTFSSYGMHWVRQAPGKGLEWVAVIWDDGSNKYYVDSVKGRFTISRDNSKNTLYLQMNSLRAEDTAVYYCARDDYYGSGSFNSYYGTDVWGQGTTVTVSSGGGGSGGGGSGGGGSEIVLTQSPATLSLSPGERATLSCRASQSVSIYLAWYQQKPGQAPRLLIYDASNRATGIPARFSGSGSGTDFTLTISSLEPEDFAVYYCQQRSNWPPFTFGPGTKVDIKSAAAFVPVFLPAKPTTTPAPRPPTPAPTIASQPLSLRPEACRPAAGGAVHTRGLDFACDIYIWAPLAGTCGVLLLSLVITLYCNHRNRKRGRKKLLYIFKQPFMRPVQTTQEEDGCSCRFPEEEEGGCELRVKFSRSADAPAYQQGQNQLYNELNLGRREEYDVLDKRRGRDPEMGGKPRRKNPQEGLYNELQKDKMAEAYSEIGMKGERRRGKGHDGLYQGLSTATKDTYDALHMQALPPR", "notes": "Masked chimeric antigen receptor on the surface of TRAC-/B2M- human T cells; entry without signal peptide; also called masked anti-PTK7 CAR P1"}}, "key": {"[1]": {"target": "T1, anti-PTK7 antibody Ab181", "T1 construct": "Unmasked parent IgG1kappa; also called Ab181 IgG1kappa", "test": "phage display selection of peptide binders of Ab181 (Screen 1, X15/X19 library)"}, "[2]": {"target": "T2, PTK7 on PTK7 positive cell line SaOS-2 (osteosarcoma) (UniProt Q13308 31-1070, limits assumed)", "T2 sequence (looked up)": "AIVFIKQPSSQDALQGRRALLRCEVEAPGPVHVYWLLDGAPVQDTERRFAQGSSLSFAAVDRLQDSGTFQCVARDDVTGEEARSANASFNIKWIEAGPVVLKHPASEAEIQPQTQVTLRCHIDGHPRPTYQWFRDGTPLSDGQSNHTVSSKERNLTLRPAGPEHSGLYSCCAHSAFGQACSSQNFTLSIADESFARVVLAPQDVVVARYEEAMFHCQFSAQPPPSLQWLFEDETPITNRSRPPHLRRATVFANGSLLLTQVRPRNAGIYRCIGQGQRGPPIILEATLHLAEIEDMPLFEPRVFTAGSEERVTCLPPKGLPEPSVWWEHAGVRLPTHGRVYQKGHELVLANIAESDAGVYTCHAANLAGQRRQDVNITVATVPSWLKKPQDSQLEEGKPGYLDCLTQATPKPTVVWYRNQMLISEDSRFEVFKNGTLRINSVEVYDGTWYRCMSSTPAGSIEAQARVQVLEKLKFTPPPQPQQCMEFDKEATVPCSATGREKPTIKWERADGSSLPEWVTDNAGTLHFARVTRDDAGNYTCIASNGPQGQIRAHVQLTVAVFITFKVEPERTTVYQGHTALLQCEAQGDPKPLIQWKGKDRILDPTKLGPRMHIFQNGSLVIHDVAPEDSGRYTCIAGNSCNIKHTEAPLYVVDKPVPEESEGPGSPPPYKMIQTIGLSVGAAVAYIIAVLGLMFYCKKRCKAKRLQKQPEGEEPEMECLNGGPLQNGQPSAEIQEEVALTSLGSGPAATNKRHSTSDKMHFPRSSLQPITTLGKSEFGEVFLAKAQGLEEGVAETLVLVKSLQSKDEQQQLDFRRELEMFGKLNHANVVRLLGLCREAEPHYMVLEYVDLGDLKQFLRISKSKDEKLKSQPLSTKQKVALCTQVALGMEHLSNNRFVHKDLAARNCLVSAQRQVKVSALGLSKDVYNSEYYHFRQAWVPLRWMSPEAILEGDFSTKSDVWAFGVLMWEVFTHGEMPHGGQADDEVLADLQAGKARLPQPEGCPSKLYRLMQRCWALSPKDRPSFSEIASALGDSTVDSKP", "test": "cell-based or functional assay"}, "[3]": {"target": "T2, PTK7 on PTK7 positive cell line SaOS-2 …", "test": "cell-based or functional assay", "remark": "listed apart in the source"}, "[4]": {"target": "T3, recombinant human PTK7.Fc (R and D Systems, catalog #9799-TK) (human, UniProt Q13308 31-704, limits assumed)", "T3 construct": "Bought reagent; also called soluble recombinant human PTK7.Fc; soluble antigen PTK7; not shown: Fc part of the bought fusion (detected with anti-human Fc)", "T3 sequence (looked up)": "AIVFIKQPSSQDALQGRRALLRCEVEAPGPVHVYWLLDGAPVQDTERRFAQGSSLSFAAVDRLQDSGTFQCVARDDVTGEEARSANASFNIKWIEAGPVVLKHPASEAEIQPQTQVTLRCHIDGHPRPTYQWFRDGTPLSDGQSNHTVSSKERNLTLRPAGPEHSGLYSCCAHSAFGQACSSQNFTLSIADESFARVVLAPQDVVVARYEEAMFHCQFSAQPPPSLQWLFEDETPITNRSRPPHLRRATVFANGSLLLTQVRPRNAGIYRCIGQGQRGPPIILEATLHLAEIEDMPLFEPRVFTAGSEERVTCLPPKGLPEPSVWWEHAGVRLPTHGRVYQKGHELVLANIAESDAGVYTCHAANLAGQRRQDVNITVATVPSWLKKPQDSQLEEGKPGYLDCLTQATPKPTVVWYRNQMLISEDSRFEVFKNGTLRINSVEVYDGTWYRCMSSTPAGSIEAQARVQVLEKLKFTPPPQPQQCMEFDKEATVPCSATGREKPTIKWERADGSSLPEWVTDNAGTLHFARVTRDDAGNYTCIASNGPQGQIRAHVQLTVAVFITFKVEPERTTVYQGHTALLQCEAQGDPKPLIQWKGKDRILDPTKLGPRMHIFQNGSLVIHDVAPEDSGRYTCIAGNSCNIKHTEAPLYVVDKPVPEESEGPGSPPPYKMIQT", "test": "flow cytometry, percent of CAR T cells positive for 10 ug/mL PTK7.Fc", "experimental": "In addition to detecting surface CAR expression, the ability of the CAR T cells and masked CAR T cells to detect target antigen was also determined. Live CAR T cells were gated by their forward scatter (FSC) and side scatter (SSC) profiles, and with DAPI dye (Invitrogen, catalog #: D3571). The cells were then stained with 10 μg/mL recombinant human PTK7.Fc (R and D Systems, catalog #9799-TK Lot DHMCO219041) as described above in Example 3, and with mouse anti-human.Fc conjugated to APC (Biolegend cat #409305) as secondary antibody for detection (FIG. 3)."}}}
{"binder": "B1", "values": [{"measurement": "binding result", "setting": "[1]", "result": "binds"}]}
{"binder": "B2", "values": [{"measurement": "% Cell killing at E:T = 1:0.5", "setting": "[2]", "result": 92.7, "unit": "%"}, {"measurement": "% Cell killing at E:T = 1:1", "setting": "[2]", "result": 79.1, "unit": "%"}, {"measurement": "IFNγ (pg/mL) at E:T = 1:0.5", "setting": "[3]", "result": 13600, "unit": "pg/mL"}, {"measurement": "IFNγ (pg/mL) at E:T = 1:1", "setting": "[3]", "result": 20500, "unit": "pg/mL"}, {"measurement": "% Antigen detection", "setting": "[4]", "result": 42.7, "unit": "%"}]}
{"binder": "EVAPGKRWFYNHVKQVPHLV (Found by phage display (Screen 1))", "note": "[mask peptide P1]", "values": [{"measurement": "binding result", "setting": "[1]", "result": "binds"}]}
